B1: scFv; the commonest letter at each place (parent)
chain 1: EVKLDETGGGLVQPGRPMKLSCVASGFTFSDYWMNWVRQSPEKGLEWVAQIRNKPYNYETYYSDSVKGRFTISRDDSKSSVYLQMNNLRVEDMGIYYCTGSYYGMDYWGQGTSVTVS
chain 2: DVVMTQTPLSLPVSLGDQASISCRSSQSLVHSNGNTYLRWYLQKPGQSPKVLIYKVSNRFSGVPDRFSGSGSGTDFTLKISRVEAEDLGVYFCSQSTHVPWTFGGGTKLEIK

Key:
fluorescein = variants of: B1; assay: Kd (Tite-Seq); details: with fluorescein; format: scFv 4-4-20, heavy + light
[1] = variants of: B1; assay: yeast surface expression (ratio to wild type); higher = more expressed; details: format: scFv 4-4-20, heavy + light

Row | Variant | Kd (fluorescein) [nM] | yeast surface expression [1]
1 | chain 1 EVKLDETGGGLVQPGRPMKLSCVASGFTFSDEWMNHVRQSPEKGLEWVAQIRNKPYNYETYYSDSVKGRFTISRDDSKSSVYLQMNNLRVEDMGIYYCTGSYYGMDYWGQGTSVTVS chain 2 DVVMTQTPLSLPVSLGDQASISCRSSQSLVHSNGNTYLRWYLQKPGQSPKVLIYKVSNRFSGVPDRFSGSGSGTDFTLKISRVEAEDLGVYFCSQSTHVPWTFGGGTKLEIK [chain 1 Y32E W36H] | ≥ 10000 | 0.342
2 | chain 1 EVKLDETGGGLVQPGRPMKLSCVASGFTFSDYWMNWVRQSPEKGLEWVAQIRNKPYNYETYYSDSVKGRFTISRDDSKSSVYLQMNNLRVEDMGIYYCTGSYTQMDYWGQGTSVTVS chain 2 DVVMTQTPLSLPVSLGDQASISCRSSQSLVHSNGNTYLRWYLQKPGQSPKVLIYKVSNRFSGVPDRFSGSGSGTDFTLKISRVEAEDLGVYFCSQSTHVPWTFGGGTKLEIK [chain 1 Y103T G104Q] | ≥ 10000 | 0.9
3 | chain 1 EVKLDETGGGLVQPGRPMKLSCVASGFTFSDNWMNWGRQSPEKGLEWVAQIRNKPYNYETYYSDSVKGRFTISRDDSKSSVYLQMNNLRVEDMGIYYCTGSYYGMDYWGQGTSVTVS chain 2 DVVMTQTPLSLPVSLGDQASISCRSSQSLVHSNGNTYLRWYLQKPGQSPKVLIYKVSNRFSGVPDRFSGSGSGTDFTLKISRVEAEDLGVYFCSQSTHVPWTFGGGTKLEIK [chain 1 Y32N V37G] | 11.3 | 2.76
4 | chain 1 EVKLDETGGGLVQPGRPMKLSCVASGFTFSDYWMNWVRQSPEKGLEWVAQIRNKPYNYETYYSDSVKGRFTISRDDSKSSVYLQMNNLRVEDMGIYYCTGSYWGLDYWWQGTSVTVS chain 2 DVVMTQTPLSLPVSLGDQASISCRSSQSLVHSNGNTYLRWYLQKPGQSPKVLIYKVSNRFSGVPDRFSGSGSGTDFTLKISRVEAEDLGVYFCSQSTHVPWTFGGGTKLEIK [chain 1 Y103W M105L G109W] | ≥ 10000 | 0.199

Stronger by Kd (fluorescein), values ahead:

Row | Kd (fluorescein) [nM] | Variant | yeast surface expression [1]
5 | 2.15 | chain 1 EVKLDETGGGLVQPGRPMKLSCVASGFTFSDYWMNWVRQSPEKGLEWVAQIRNKPYNYETYYSDSVKGRFTISRDDSKSSVYLQMNNLRVEDMGIYYCTGSYYGMDTAGQGTSVTVS chain 2 DVVMTQTPLSLPVSLGDQASISCRSSQSLVHSNGNTYLRWYLQKPGQSPKVLIYKVSNRFSGVPDRFSGSGSGTDFTLKISRVEAEDLGVYFCSQSTHVPWTFGGGTKLEIK [chain 1 Y107T W108A] | 0.476
6 | 1.79 | chain 1 EVKLDETGGGLVQPGRPMKLSCVASGFTFSHYWMNWVRQSPEKGLEWVAQIRNKPYNYETYYSDSVKGRFTISRDDSKSSVYLQMNNLRVEDMGIYYCTGSYYGMDYWGQGTSVTVS chain 2 DVVMTQTPLSLPVSLGDQASISCRSSQSLVHSNGNTYLRWYLQKPGQSPKVLIYKVSNRFSGVPDRFSGSGSGTDFTLKISRVEAEDLGVYFCSQSTHVPWTFGGGTKLEIK [chain 1 D31H] | 0.763
